Experimental data from US20150329627A1 (Eli Lilly, published 2015).
Changes are numbered by the printed parent chain.

What was measured:
[1] = target: T1, human angiopoietin-2 (Ang2) (human, UniProt O15123 19-496); experiment: cell-based or functional assay
T1 sequence: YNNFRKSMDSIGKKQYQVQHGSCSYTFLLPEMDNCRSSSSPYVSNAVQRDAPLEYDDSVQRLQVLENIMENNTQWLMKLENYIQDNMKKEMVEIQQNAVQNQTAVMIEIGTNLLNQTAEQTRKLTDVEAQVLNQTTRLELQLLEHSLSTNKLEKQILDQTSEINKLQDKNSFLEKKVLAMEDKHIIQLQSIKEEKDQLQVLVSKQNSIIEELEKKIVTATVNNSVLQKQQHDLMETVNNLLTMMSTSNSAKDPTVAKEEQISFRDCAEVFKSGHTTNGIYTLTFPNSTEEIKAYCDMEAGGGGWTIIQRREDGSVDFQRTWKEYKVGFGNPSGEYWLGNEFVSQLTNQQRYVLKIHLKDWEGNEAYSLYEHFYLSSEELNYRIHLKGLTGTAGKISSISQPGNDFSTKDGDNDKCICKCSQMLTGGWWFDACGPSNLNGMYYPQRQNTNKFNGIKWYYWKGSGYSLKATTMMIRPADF

[2] = target: T1, human angiopoietin-2 (Ang2); experiment: Biacore SPR, 37 C, n = 3
cyno Ang2 = target: T2, cyno Ang2 (cynomolgus, UniProt A0A2K5VNX6 19-496); experiment: Biacore SPR, 37 C, n = 3
T2 construct: also called cynomolgus Ang2
T2 sequence: T1 sequence with E258G, I279V, F284L, I291V, G410A, A468G, D477G

mouse Ang2 = target: T3, mouse Ang2 (mouse, UniProt O35608 19-496, limits assumed); experiment: Biacore SPR, 37 C, n = 3
T3 sequence (looked up): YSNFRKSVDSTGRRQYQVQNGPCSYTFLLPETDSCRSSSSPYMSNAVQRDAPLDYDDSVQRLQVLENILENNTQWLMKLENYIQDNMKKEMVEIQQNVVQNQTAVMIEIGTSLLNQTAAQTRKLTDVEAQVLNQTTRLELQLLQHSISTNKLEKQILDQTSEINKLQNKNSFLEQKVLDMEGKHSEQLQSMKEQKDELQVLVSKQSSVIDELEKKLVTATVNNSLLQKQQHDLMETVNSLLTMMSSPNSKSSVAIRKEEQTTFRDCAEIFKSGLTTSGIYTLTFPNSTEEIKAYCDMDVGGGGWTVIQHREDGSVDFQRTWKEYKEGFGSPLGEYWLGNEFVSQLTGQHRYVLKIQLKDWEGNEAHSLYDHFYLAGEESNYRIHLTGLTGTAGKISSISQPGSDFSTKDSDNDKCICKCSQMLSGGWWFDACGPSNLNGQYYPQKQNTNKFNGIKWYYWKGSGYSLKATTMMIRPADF

rabbit Ang2 = target: T4, rabbit Ang2 (rabbit, UniProt G1T9B3 19-496); experiment: Biacore SPR, 37 C, n = 3
T4 sequence: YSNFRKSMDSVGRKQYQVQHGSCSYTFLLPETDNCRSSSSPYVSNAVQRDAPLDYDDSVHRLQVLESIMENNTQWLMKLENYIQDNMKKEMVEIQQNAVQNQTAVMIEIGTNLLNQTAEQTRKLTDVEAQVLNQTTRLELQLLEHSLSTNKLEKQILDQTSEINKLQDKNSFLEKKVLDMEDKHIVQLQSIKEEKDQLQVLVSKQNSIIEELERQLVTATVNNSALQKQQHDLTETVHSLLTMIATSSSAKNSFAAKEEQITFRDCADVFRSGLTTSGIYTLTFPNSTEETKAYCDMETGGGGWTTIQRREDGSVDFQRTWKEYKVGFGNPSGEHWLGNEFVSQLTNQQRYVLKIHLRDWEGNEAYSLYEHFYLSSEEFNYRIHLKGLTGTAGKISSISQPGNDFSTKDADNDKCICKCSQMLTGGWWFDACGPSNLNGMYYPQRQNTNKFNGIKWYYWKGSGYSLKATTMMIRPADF

dog Ang2 = target: T5, dog Ang2 (dog, UniProt A0A8J8 19-495, limits assumed); experiment: Biacore SPR, 37 C, n = 3
T5 sequence (looked up): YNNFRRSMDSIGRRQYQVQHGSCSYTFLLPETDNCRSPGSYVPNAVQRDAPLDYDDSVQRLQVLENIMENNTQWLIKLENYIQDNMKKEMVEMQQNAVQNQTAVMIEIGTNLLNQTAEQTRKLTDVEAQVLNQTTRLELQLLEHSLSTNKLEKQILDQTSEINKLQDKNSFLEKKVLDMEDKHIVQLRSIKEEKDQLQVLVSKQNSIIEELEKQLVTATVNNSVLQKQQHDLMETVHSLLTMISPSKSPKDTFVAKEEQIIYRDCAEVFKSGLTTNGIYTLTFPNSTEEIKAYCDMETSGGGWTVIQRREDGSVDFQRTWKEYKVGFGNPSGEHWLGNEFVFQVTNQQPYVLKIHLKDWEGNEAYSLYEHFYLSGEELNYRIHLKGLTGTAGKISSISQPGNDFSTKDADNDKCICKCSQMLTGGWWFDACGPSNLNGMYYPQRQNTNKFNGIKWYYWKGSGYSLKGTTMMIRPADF

rat Ang2 = target: T6, rat Ang2 (rat, UniProt O35462 19-496, limits assumed); experiment: Biacore SPR, 37 C, n = 3
T6 sequence (looked up): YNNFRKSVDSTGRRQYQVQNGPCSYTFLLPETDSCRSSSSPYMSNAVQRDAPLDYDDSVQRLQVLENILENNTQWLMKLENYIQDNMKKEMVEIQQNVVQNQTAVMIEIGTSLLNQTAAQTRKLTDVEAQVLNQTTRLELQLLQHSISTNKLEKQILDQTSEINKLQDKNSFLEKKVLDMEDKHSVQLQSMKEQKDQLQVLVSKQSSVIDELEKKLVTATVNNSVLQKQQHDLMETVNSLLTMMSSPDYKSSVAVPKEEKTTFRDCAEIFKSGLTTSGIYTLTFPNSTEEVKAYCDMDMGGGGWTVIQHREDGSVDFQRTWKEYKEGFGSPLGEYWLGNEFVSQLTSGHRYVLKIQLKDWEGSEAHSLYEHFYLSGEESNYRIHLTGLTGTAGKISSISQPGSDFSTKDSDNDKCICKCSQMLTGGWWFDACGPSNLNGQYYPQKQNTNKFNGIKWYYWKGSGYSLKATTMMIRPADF

[3] = target: T1, human angiopoietin-2 (Ang2); experiment: KinExA; reference H1H685P-293HEK
[4] = target: T1, human angiopoietin-2 (Ang2); experiment: Biacore SPR, 25 C; reference 3.19.3-293HEK
[5] = target: T1, human angiopoietin-2 (Ang2); experiment: Biacore SPR, 25 C; reference H1H685P-293HEK
[6] = target: T1, human angiopoietin-2 (Ang2); experiment: Biacore SPR, 25 C, antibody captured on Protein A, soluble Ang2 injected
[7] = target: T1, human angiopoietin-2 (Ang2); experiment: KinExA 3200, solution equilibrium at 25 C, human Ang2 on sepharose beads
[8] = target: T1, human angiopoietin-2 (Ang2); experiment: blocking ELISA: antibody titrated against biotinylated human Ang2 (100 ng/ml), binding to coated human Tie2-Fc read

B1: Antibody A (antibody, human IgG4 S228P, kappa, F234A L235A, V domains shown)
VH: QVQLVQSGAEVKKPGASVKVSCKASGYSFTDYNMVWVRQAPGQGLEWMGYIDPYNGGTGYNQKFEGRVTMTTDTSTSTAYMELRSLRSDDTAVYYCARTRDRYDVWYFDVWGQGTLVTVSS
VL: DIQMTQSPSSVSASVGDRVTITCKASQDVYIAVAWYQQKPGKAPKLLIYWASTRDTGVPSRFSGSGSGTDFTLTISSLQPEDFATYYCHQYSSYPPTFGGGTKVEIKR
[1]
  IC50, neutralization of human Ang2 induced phospho-Tie-2 in CHO-Tie-2 cells: 0.773 nM
[2]
  Kd: 0.08 nM
  koff: 7e-05 s⁻¹
  kon: 1e+06 M⁻¹ s⁻¹
Cyno Ang2
  Kd: 0.107 nM
  koff: 0.00029 s⁻¹
  kon: 2.7e+06 M⁻¹ s⁻¹
Mouse Ang2
  Kd: 0.109 nM
  koff: 0.00011 s⁻¹
  kon: 1e+06 M⁻¹ s⁻¹
Rabbit Ang2
  Kd: 0.21 nM
  koff: 0.00015 s⁻¹
  kon: 730000 M⁻¹ s⁻¹
Dog Ang2
  Kd: 0.14 nM
  koff: 0.00011 s⁻¹
  kon: 790000 M⁻¹ s⁻¹
Rat Ang2
  Kd: 0.18 nM
  koff: 0.0002 s⁻¹
  kon: 1.2e+06 M⁻¹ s⁻¹
[3]
  fold lower KD than H1H685P-293HEK: ~8 fold
[4]
  fold lower KD than 3.19.3-293HEK: ~8 fold
[5]
  fold lower KD than H1H685P-293HEK: ~4 fold
[6]
  Kd: 0.038 nM
  koff: 2.8e-05 s⁻¹
  kon: 747000 M⁻¹ s⁻¹
[7]
  Kd: 0.00011 nM
[8]
  IC50: 0.027 nM
